In assay [1] the target is human TIM3 (isoform 1), membrane bound (human) (UniProt Q8TDQ0). Nature of the assay: flow cytometry, lung cancer TILs, CD4+ cells (upper panel), isotype staining.
The target is the same in assay [2]. Nature of the assay: flow cytometry, lung cancer TILs, CD8+ cells (lower panel), isotype staining. On the technique in general: In flow cytometry, cells or beads pass a laser one at a time.
The target in another assay is mouse TIM3 (mouse) (UniProt Q8VIM0). The experiment in a line: binding to activated mouse T cells (method not given).
Chain of mouse TIM3 (mouse) (Q8VIM0 20-281): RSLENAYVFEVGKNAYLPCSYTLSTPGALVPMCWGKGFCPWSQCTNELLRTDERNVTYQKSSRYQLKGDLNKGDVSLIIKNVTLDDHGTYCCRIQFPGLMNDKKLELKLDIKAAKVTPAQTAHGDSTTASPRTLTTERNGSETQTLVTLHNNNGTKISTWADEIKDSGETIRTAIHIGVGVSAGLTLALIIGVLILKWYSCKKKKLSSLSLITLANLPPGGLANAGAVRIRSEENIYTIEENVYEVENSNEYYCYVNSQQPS

For “Isotype (Comp-PE-A :: Isotype) (antibody)”, the % of cells in the quadrant PE isotype positive, APC isotype negative in assay [1] was 2.94%; in assay [2], 3.09%.

As to rat anti-mouse TIM-3 antibody RMT3-23, in the assay with mouse TIM3 (mouse), the EC50 (usually the concentration needed to bring the measured effect to its halfway point) is 1.7 nM and the fold weaker EC50 than TIM3.18 binding to human TIM-3 came out at 17 fold.

The values above are taken from patent US20240209083A1.
